Values quoted from earlier work, collected in PMC10612106.

Biological target: MORC3 ATPase domain (Homo sapiens) (UniProt Q14149)

For MORC3 CW (from UniProt Q14149), the Kd is given as 9 µM.
